In the supplement of paper PMC10567573:
± gives the standard deviation.

Assay: protein stability index of a GFP-peptide fusion (GPS, HEK-293T) (PSI 1-6); higher = more stable
[1] = treatment: DMSO, c terminus: a fixed tail appended
[2] = treatment: MLN4924 1 uM, 8 h, c terminus: a fixed tail appended
[3] = treatment: DMSO, c terminus: native
[4] = treatment: MLN4924 1 uM, 8 h, c terminus: native
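Further: 24-mer peptide tiles fused after GFP, lentivirally expressed, FACS-sorted into six equal bins by GFP/DsRed ratio, decoded by Illumina sequencing, PSI is the read-weighted mean bin number.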

Sequence | protein stability index [1] | protein stability index [2] | protein stability index [3] | protein stability index [4]
KKDNHALVRETDELRRNHCFQDFK [ELOA2] | 4.11 ± 0.31 | 4.03 ± 0.3 |  | 
KKQDENEGIKVEDLLFIVDTMLEE [CEP70] | 3.25 ± 0.22 | 3.27 ± 0.23 |  | 
KKQLADETLLKVDLENRCQSLTED [LMNB1] | 5.13 ± 0.23 | 5.31 ± 0.076 |  | 
KKYVKGDVSLCRWHPKPYCQALPY [FBXO34] | 2.31 ± 0.45 | 2.05 ± 0.28 |  | 
KLDKKLKKMEQNKTAATRYRQKKR [ATF4] | 4.48 ± 0.16 | 4.42 ± 0.23 |  | 
KLGAPLSGLQGLPECTRCGHGIVG [PDLIM4] | 2.65 ± 0.25 | 2.75 ± 0.36 |  | 
KLREFLRVEEQAILDAMAEETRQK [TRIM35] | 2.85 ± 0.53 | 3.34 ± 0.18 |  | 
KLRFNRKKKGMYRKAITEAANAAR [PWWP2B] | 3.42 ± 0.23 | 3.29 ± 0.2 |  | 
KMKYKGQYRPSDLLCPETYVWVPI [ATE1] | 2.01 ± 0.39 | 2.03 ± 0.26 |  | 
KNIIHKTSGKRYVYRFVCDLQNLL [ETS2] | 2.96 ± 0.48 | 2.69 ± 0.6 |  | 
KNTSEQDQPMGGWEMIRKIGDTSV [LMNB1] | 4.27 ± 0.18 | 4.43 ± 0.22 |  | 
KNTTYDLIANIVHDGKPSEGSYRI [USP39] | 2.62 ± 0.4 | 2.52 ± 0.32 |  | 
KPGPQDTVERPFYDLWASDNPLDR [NOP53] | 4.45 ± 0.43 | 4.38 ± 0.16 |  | 
KPTVFIGVPQIWEKIHEMVKKNSA [ACSBG2] | 2.75 ± 0.34 | 2.47 ± 0.81 |  | 
KQECLITTFQDVYFVSESFEDAKE [TPH1] | 4.08 ± 0.73 | 4.45 ± 0.36 |  | 
KQMSFLEKRGCPRTALEYCKLILS [TCF25] | 3.12 ± 1 | 3.02 ± 0.2 |  | 
KQQREKTRWLNSGRGDEASEEGQN [ADD1] | 5.54 ± 0.16 | 5.48 ± 0.26 |  | 
KQWGPLEREPVRGQCLDSTDQLEF [RTN2] | 4.45 ± 0.35 | 4.71 ± 0.2 |  | 
KRAFKIKDFANTIPGHGGIMDRFD [CDS2] | 2.77 ± 0.27 | 2.91 ± 0.42 |  | 
KRGGNCPAPAPLVPQDPDLEEEEE [ZBTB22] | 5.56 ± 0.26 | 5.59 ± 0.21 |  | 
KRKGIKSSIGRLFGKKEKGRLIQL [PPFIA4] | 2.46 ± 0.31 | 2.22 ± 0.22 |  | 
KRKSEVERAVKRMRHLSTGTMTGL [MATN2] | 3.31 ± 0.088 | 3.12 ± 0.65 |  | 
KSGEEAVTVLEDLEKGLEPEPQVP [ZNF232] | 5.63 ± 0.17 | 5.62 ± 0.16 |  | 

Sequence | protein stability index [1] | protein stability index [2] | protein stability index [3] | protein stability index [4]
KSKAELQSEERKRIDELIESGKEE [KMT5A] | 5.59 ± 0.25 | 5.67 ± 0.21 |  | 
KSKSITNLAAAAADIPQDQLVVMH [BTBD10] | 4.43 ± 0.34 | 4.64 ± 0.4 |  | 
KSPPQLRQFLPEEFMKTLEKTGPQ [DENND6A] | 4.63 ± 0.3 | 4.43 ± 0.32 |  | 
KSYIFEGALGMSNRDSYFYAAIVA [VMA21] | 2.96 ± 0.66 | 2.6 ± 0.46 |  | 
KTEQQRRREKAVHRLRVQQAALRA [NOP53] | 3.98 ± 0.42 | 4.13 ± 0.18 |  | 
KVKWTHEEDEQLRALVRQFGQQDW [MYBL2] | 3.19 ± 0.44 | 3.44 ± 0.12 |  | 
KVLIQKNLGPKSKVLILRNHGLVS [ADD1] | 2.08 ± 0.36 | 2.16 ± 0.33 |  | 
KVNLCGHWYYSKACCRSCRPPHS [ADAMTSL2] |  |  | 2.86 ± 0.57 | 3.17 ± 0.54
KVTLRIRNVRFSDEGGFTCFFRDH [MOG] | 2.29 ± 0.5 | 2.21 ± 0.14 |  | 
KWLDMLNNWDKWMAKKHKKIRLRC [TBC1D10A] | 2.62 ± 0.72 | 2.27 ± 0.31 |  | 
KYLTYDQLRKQKKKTGKSSTTALG [ELOA2] | 3.35 ± 0.083 | 3.79 ± 0.34 |  | 
LAEGVSASLHTLLGDPCPMLESPG [HDAC6] | 4 ± 0.28 | 4.17 ± 0.29 |  | 
LAESGGSPDVLQMLKIHRSDPQLI [TRADD] | 3.16 ± 0.43 | 3.36 ± 0.24 |  | 
LAEWEANPLICPVCTKYNLRITSG [RPAIN] | 3.35 ± 0.36 | 3.31 ± 0.36 |  | 
LAGPNDRSDVEKGGKIIMPPSALD [UFD1] | 4.77 ± 0.11 | 4.97 ± 0.2 |  | 
LALFPLLPKVLQKYWCVTATRVAP [ZBED1] | 2.98 ± 0.3 | 2.94 ± 0.94 |  | 
LAPNFRWAIPNRQINDGMGGDGDD [BEX3] | 4.77 ± 0.22 | 4.6 ± 0.26 |  | 
LARKIASRNEFDRTIAETEAAYLK [SSNA1] | 3.57 ± 0.23 | 3.74 ± 0.3 |  | 
LASRNTLFNLSNFLDKSGSHGYDM [SNAP91] | 2.2 ± 0.26 | 2.61 ± 0.16 |  | 
LAVRGSRRERELERRELAVEQGER [ZBED3] | 5.05 ± 0.2 | 5.07 ± 0.18 |  | 
LCLQLRDDIVSGRLPCSFVTLALL [EPB41L3] | 3.24 ± 0.61 | 2.23 ± 0.45 |  | 
LCSSPLEAETPPNGPDCGYGSFHQ [ATE1] | 4.28 ± 0.18 | 4.24 ± 0.079 |  | 
LCYPPAKGCLKLCRRCYDWIHRPG [SPRY1] | 2.06 ± 0.094 | 2.27 ± 0.33 |  | 

Sequence | protein stability index [1] | protein stability index [2] | protein stability index [3] | protein stability index [4]
LDHDIFQLIDPDENKENEAFEFKK [CDC25A] | 4.07 ± 0.083 | 4.13 ± 0.52 |  | 
LDKNKIPYKGFIPEDLEAFIELH [FEM1A] |  |  | 3.1 ± 0.29 | 3.06 ± 0.27
LDLAGNNIPGDVLRAVEQAMGHSQ [LRRC45] | 4.45 ± 0.39 | 4.44 ± 0.28 |  | 
LDQLLHYRKKSAEFPDFYDSEEPV [CHGB] | 3.96 ± 0.34 | 4 ± 0.15 |  | 
LDSSEGSSQEDEDLGLSEGSSQDS [SPANXN3] | 5.66 ± 0.19 | 5.64 ± 0.23 |  | 
LEEGSSFWNQGLTWKVLFCSMSAT [CLCN6] | 3.06 ± 0.55 | 2.63 ± 0.67 |  | 
LELGSTEVLLDHLKAHAEEKPPSG [PLAGL1] | 4.46 ± 0.28 | 4.94 ± 0.2 |  | 
LEPLGAPQAPAPATATDTFEAAPP [CEBPB] | 5.38 ± 0.42 | 5.39 ± 0.44 |  | 
LERKFRCQQEQLFQTRQEMTSMSA [LRRC45] | 3.22 ± 0.29 | 3.21 ± 0.24 |  | 
LFGTIAYLPPERIREKSRLFDTKH [RIPK4] | 2.57 ± 0.52 | 2.57 ± 0.27 |  | 
LFLSHVLALGLGIYIGKRLSTPSA [BNIP3L] | 2.86 ± 0.86 | 2.94 ± 0.55 |  | 
LFYFFLYQYCSIHCSDRKQVRNIA [CSTF3] | 2.92 ± 0.83 | 2.61 ± 0.33 |  | 
LGGFRHKVTGVEYHNAGTQTVPKR [IQUB] | 4.03 ± 0.36 | 4.1 ± 0.3 |  | 
LGMVTPVNDLRGSDSIAYDKGEKL [ADD1] | 4.62 ± 0.3 | 4.9 ± 0.089 |  | 
LGYCLLLMLAGMGLHYIAFRKVKQ [DNAJC4] | 3.18 ± 0.28 | 3.11 ± 0.38 |  | 
LHLLYLLEKVECTPSQEHLKHQTV [FEM1A] | 2.29 ± 0.43 | 2.23 ± 0.26 |  | 
LICEGLYPASIVDEPTFKVLLKTA [ZBED1] | 2.25 ± 0.28 | 2.31 ± 0.24 |  | 
LIGGLEAQLSELRCEMEAQNQEYK [KRT15] | 4.1 ± 0.15 | 4.52 ± 0.44 |  | 
LIHKADEVTLSEAGSTAGAAETRG [PALM] | 5.31 ± 0.2 | 5.18 ± 0.15 |  | 
LIPGDAYTDYVATRWYRAPELLVG [CDKL4] | 2.18 ± 0.22 | 2.18 ± 0.071 |  | 
LIQRKKVHVFGDELSLVTLFRCIQ [TNFSF13B] | 2.25 ± 0.67 | 2.04 ± 0.34 |  | 
LIYDFIEDQGGLEAVRQEMRRQEP [WAS] | 2.55 ± 0.28 | 2.75 ± 0.42 |  | 
LKASMRELGLLIFFLFIGVILFSS [KCNA1] | 2.33 ± 0.45 | 2.31 ± 0.48 |  | 

Sequence | protein stability index [1] | protein stability index [2] | protein stability index [3] | protein stability index [4]
LKECLKKQLEFCFSRENLSKDLYL [LARP4] |  | 2.67 ± 0.89 |  | 
LKKGESECQYYIDKLEYLDEKQRD [NET1] | 4.55 ± 0.15 | 4.5 ± 0.32 |  | 
LKLLDELPIAKVMKDYLKHKFDDI [ASB7] | 2.04 ± 0.3 | 2.14 ± 0.28 |  | 
LKLVAHPRAKSKVWKYFGFDTNAE [ZBED1] | 2.23 ± 0.39 | 2.25 ± 0.26 |  | 
LKPRPEPPKKPSNWRRKHEEFIAT [ZC2HC1A] | 3.47 ± 0.22 | 3.56 ± 0.17 |  | 
LLDRARGAAAQGQTQTVAAQAQAL [PI4K2A] | 4.3 ± 0.29 | 4.38 ± 0.2 |  | 
LLFKYQMKEPITKAEILESVIKNY [MAGEA10] | 2.53 ± 0.32 | 2.74 ± 0.29 |  | 
LLLSILNPTRQDESIQRIAVHLCN [ZER1] | 2.75 ± 0.42 | 2.42 ± 0.45 |  | 
LLPKGSKEEQRDYVFYLAVGNYRL [FIS1] | 2.63 ± 0.56 | 2.15 ± 0.063 |  | 
LLRFAQVFSQMIHLNETVKAPDIE [FEM1B] | 2.67 ± 1.1 | 2.46 ± 0.85 |  | 
LLSLKQNHEQEVNTLRCQLGDRLN [KRT33B] | 3.38 ± 0.16 | 3.46 ± 0.2 |  | 
LMSGCSSELKNRMEYALNMLLQRC [PLK2] | 2.04 ± 0.22 | 2.22 ± 0.29 |  | 
LNQKGTAVETEGSGSRHPPWARGC [SLC2A12] | 3.98 ± 0.29 | 4.08 ± 0.38 |  | 
LNQQVVSSSEQLQCCQTEIIELRR [KRT36] | 4.29 ± 0.22 | 4.04 ± 0.27 |  | 
LNTRSQAPLLRWVLTLSFLVATVA [HMOX1] | 2.33 ± 0.46 | 2.15 ± 0.31 |  | 
LPFGPFNGTAWTYHSQDELGGFSH [PKD2L1] | 2.41 ± 0.13 | 2.58 ± 0.18 |  | 
LPIFTPAKMGATKEEREDTPIQLQ [TCAP] | 4.7 ± 0.089 | 4.72 ± 0.088 |  | 
LPKELPADAVNLTIPASLDLSPLL [PLAGL1] | 3.32 ± 0.19 | 3.48 ± 0.28 |  | 
LPQETNLTLKVCKPQAPQKLDPTL | 3.58 ± 0.36 | 3.91 ± 0.49 |  | 
LPREPGDSAQFTKALAIILHLLYL [FEM1A] | 2.16 ± 0.12 | 2.23 ± 0.12 |  | 
